Measurements from article PMC2719869, “A Mouse Model for the Metabolic Effects of the Human Fat Mass and Obesity Associated FTO Gene” (PLoS Genetics, 2009).

Biological target: the molecule itself
Experiment: native MS; non-denaturing nano-electrospray MS; 10 uM protein (Q-ToF) or 15 uM protein (Synapt HDMS) sprayed from 15 mM ammonium acetate pH 7.5, cone voltage 80 V; monomer to dimer

Protein	stoichiometry N
wild-type murine FTO (fat mass and obesity associated protein), full length (enzyme, mouse, UniProt Q8BGW1 1-502, looked up, also called mFTO; wild-type mFTO; source: E. coli, soluble; prepared as previously reported for full length mFTO [8]) MKRVQTAEEREREAKKLRLLEELEDTWLPYLTPKDDEFYQQWQLKYPKLVFREAGSIPEELHKEVPEAFLTLHKHGCLFRDVVRIQGKDVLTPVSRILIGDPGCTYKYLNTRLFTVPWPVKGCTVKYTEAEIAAACQTFLKLNDYLQVETIQALEELAVREKANEDAVPLCMAEFPRAGVGPSCDDEVDLKSRAAYNVTLLNFMDPQKMPYLKEEPYFGMGKMAVSWHHDENLVDRSAVAVYSYSCEGSEDESEDESSFEGRDPDTWHVGFKISWDIETPGLTIPLHQGDCYFMLDDLNATHQHCVLAGSQPRFSSTHRVAECSTGTLDYILERCQLALQNVLNDSDDGDVSLKSFDPAVLKQGEEIHNEVEFEWLRQFWFQGNRYKLCTDWWCEPMTHLEGLWKKMESMTNAVLREVKREGLPVEQRSEILSAILVPLTVRQNLRKEWHARCQSRVVRTLPVQQKPDCRPYWEKDDPSMPLPFDLTDVVSELRGQLLEARS	2
C-terminal domain of wild-type murine FTO (residues D329-end) (domain or fragment, mouse, UniProt Q8BGW1 329-502, looked up, partial alpha-N-gluconylation of the N-terminal His-tag (+178 Da adduct, likely), FTO, mouse, C-terminal domain, residues 329-502; Further details of the construct are in Text S1; also called CmFTO; mFTO 329-502 truncation; source: E. coli, soluble; prepared as previously reported for full length mFTO [8]; not shown: His tag, N-terminal, kept) DYILERCQLALQNVLNDSDDGDVSLKSFDPAVLKQGEEIHNEVEFEWLRQFWFQGNRYKLCTDWWCEPMTHLEGLWKKMESMTNAVLREVKREGLPVEQRSEILSAILVPLTVRQNLRKEWHARCQSRVVRTLPVQQKPDCRPYWEKDDPSMPLPFDLTDVVSELRGQLLEARS	2
